The test system of the series is T1, GtrR (Burkholderia cenocepacia H111), ORF:a5d7dc98.
T1 sequence: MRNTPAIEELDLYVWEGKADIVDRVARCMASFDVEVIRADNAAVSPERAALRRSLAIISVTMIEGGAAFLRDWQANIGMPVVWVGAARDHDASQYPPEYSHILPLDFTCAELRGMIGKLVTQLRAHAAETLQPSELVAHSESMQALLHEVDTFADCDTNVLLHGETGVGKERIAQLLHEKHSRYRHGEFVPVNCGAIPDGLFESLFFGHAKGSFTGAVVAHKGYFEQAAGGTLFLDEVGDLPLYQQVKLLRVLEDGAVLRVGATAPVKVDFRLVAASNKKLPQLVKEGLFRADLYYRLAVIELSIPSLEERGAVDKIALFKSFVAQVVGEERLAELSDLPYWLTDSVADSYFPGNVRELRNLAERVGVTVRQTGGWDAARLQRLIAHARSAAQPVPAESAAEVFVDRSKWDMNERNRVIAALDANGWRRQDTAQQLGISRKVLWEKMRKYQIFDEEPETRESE
Description: EMSA. The following applies: Binding reactions per manufacturer's instructions (Thermo), 3'-biotin probes, 5% polyacrylamide gel; buffer, salt, pH and temperature not stated. On the technique in general: A gel shift assay detects complexes by their altered migration in electrophoresis.

For “GGCTTGCGTATTTCTGGCCCGGTTGATTGATTTTGGTTGTGATTTTTTGCCACGCAACGTCGAAAACGCATCGCGCGGCCCCAGTTCGCTCTCGTATCGAAAATGAGATTTTCGATTTCGCAGACAATTGTTAAATGCGGAACCGATATCCGTCAACCTGAGAAAACGGGCGGCTTGCGTAAAATCGAAATCGCGGGTACCGGTTTAAGGTTGCAATGCAGCA (double strand) [Bcal3178 promoter 223 bp]”, the binding result was “no binding”.
